T1: cynomolgus DLL4 overexpressed on cells (cynomolgus, UniProt Q9NR61 27-685 (human entry))
T1 construct: also called cyno DII4; cDLL4
T1 chain: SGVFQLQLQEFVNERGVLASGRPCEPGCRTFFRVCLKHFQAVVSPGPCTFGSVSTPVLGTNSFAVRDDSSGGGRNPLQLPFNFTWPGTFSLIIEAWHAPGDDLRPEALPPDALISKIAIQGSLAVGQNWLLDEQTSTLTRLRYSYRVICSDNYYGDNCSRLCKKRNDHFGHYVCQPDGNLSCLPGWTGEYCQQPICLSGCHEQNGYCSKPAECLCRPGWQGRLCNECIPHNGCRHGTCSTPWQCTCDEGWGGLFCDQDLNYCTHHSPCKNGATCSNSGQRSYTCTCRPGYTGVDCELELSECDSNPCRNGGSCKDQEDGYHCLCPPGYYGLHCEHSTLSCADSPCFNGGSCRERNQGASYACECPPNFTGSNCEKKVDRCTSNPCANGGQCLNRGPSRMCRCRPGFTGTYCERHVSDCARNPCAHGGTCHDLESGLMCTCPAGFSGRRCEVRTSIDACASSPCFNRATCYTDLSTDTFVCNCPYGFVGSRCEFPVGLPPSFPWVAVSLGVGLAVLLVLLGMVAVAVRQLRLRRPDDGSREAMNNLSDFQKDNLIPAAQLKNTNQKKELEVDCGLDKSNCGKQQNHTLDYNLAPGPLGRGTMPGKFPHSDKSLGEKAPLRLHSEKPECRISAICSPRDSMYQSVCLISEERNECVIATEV


Experiments:
[1] = target: T2, recombinant human VEGF165 (human, UniProt P15692-4 27-191, biotinylated in the competition assays); experiment: AlphaScreen, hVEGF165/hVEGFR2-Fc competition; design: % inhibition: concentration or dose not given beside the values
T2 construct: Bought protein; also called hVEGF165; rhVEGF165
Method: (§1) Finally, streptavidin donor beads (20 μg/ml) are added and after 1 hour of incubation in the dark, fluorescence is measured on the Envision microplate reader.

[2] = target: T2, recombinant human VEGF165; experiment: ELISA, hVEGF165/hVEGFR2-Fc competition; design: % inhibition: concentration or dose not given beside the values
[3] = target: T2, recombinant human VEGF165; experiment: AlphaScreen, hVEGF165/hVEGFR1-Fc competition; design: % inhibition: concentration or dose not given beside the values
Method: as §1

[4] = target: T2, recombinant human VEGF165; experiment: SPR Biacore, immobilised hVEGF165, two state reaction model
Method: Samples are injected for 2 min and allowed to dissociate up to 20 min at a flow rate of 45 μl/min. In between sample injections, the chip surface is regenerated with 100 mM HCl. HBS-EP+(Hepes buffer pH7.4+EDTA) is used as running buffer. Binding curves are fitted using a Two State Reaction model by Biacore T100 Evaluation Software v2.0.1.
^{(a)}KD = kd1/kₐ₁ * (kd2/(kd2 + kₐ₂)) ^{(b)}Curves are fitted using a Two State Reaction model by Biacore T100 Evaluation Software v2.0.1

[5] = target: VEGF (used to stimulate HUVEC cells) (UniProt P15692-4 27-191, limits assumed); experiment: cell-based or functional assay
[6] = target: T2, recombinant human VEGF165; experiment: binding ELISA, coated rhVEGF165
[7] = target: T2, recombinant human VEGF165; experiment: AlphaScreen, hVEGF165/hVEGFR2-Fc competition
Method: as §1

[8] = target: T3, human DLL4 overexpressed on cells (human, UniProt Q9NR61 27-685); experiment: cell-based or functional assay
[9] = target: T4, recombinant human DLL4 (human, UniProt Q9NR61 25-522); experiment: competition ELISA, biot-hDLL4 to coated hNotch1-Fc
T4 construct: also called rhDLL4; hDLL4
Source text: Residual binding of biotinylated human DII4 is detected using horseradish peroxidase (HRP) conjugated extravidin (Sigma, St. Louis, Mo., USA) (FIG. 3 A-C). Human DII4 is biotinylated as described above.

[10] = target: T5, mouse DLL4 overexpressed on cells (mouse, UniProt Q9JI71 27-686); experiment: FACS titration on HEK293-mDLL4 cells, MCF
T5 construct: whole, on cells; also called CHO-mDLL4; CHO-mDII4
Method: (§2) In order to determine the cynomologus cross-reactivity of the VHHs, a FACS binding experiment is performed. Cynomolgus DII4 expressing HEK293 cells (transient or stable transfection) are used for a titration binding experiment of the VHHs. After a 30 minutes incubation on ice, all samples are washed and detection is performed by applying anti-c-myc˜Alexa647 (Santa Cruz Biotechnology, Santa Cruz, Calif., USA). Human and mouse DII4 overexpressing HEK293 cells are taken as reference. The mean MCF value is determined on the FACS Array and used for calculation of the EC₅₀ value (see FIG. 9 A-E).

[11] = target: T3, human DLL4 overexpressed on cells; experiment: competitive FMAT, hNotch1-Fc on CHO-hDLL4
[12] = target: T3, human DLL4 overexpressed on cells; experiment: FMAT, labelled hNotch1-Fc on CHO-hDLL4, periplasmic extract
Source text: (§3) All calculations are based on the FL1_total signal which comprises the average of the fluorescence per well times the number of counts per well.

[13] = target: T1, cynomolgus DLL4 overexpressed on cells; experiment: FACS titration on HEK293-cDLL4 cells, MCF
Method: as §2

[14] = target: T4, recombinant human DLL4; experiment: binding ELISA, coated rhDLL4
Method: (§4) In order to determine cross-reactivity to mouse DII4 a binding ELISA is performed. […] Wells are blocked with a casein solution (1% in PBS). VHHs are applied as dilution series and binding is detected using a mouse anti-myc (Roche) and an anti-mouse-AP conjugate (Sigma, St Louis, Mo., USA) (FIG. 7 A-H). As reference, binding to human DII4 is measured.

[15] = target: T4, recombinant human DLL4; experiment: SPR Biacore T100, hDLL4 on chip, VHH/Fab injected
Method: Kinetic analysis to determine the affinity of the DII4-VHH interaction is performed by Surface Plasmon Resonance (SPR) on a Biacore T100 instrument. […] Purified VHHs or Fab fragment are injected for 2 minutes at different concentrations (between 10 and 300 nM) and allowed to dissociate for 20 min at a flow rate of 45 μl/min. Between sample injections, the surfaces are regenerated with 10 mM glycine pH1.5 and 100 mM HCl. HBS-N (Hepes buffer pH7.4) is used as running buffer. If possible, data are evaluated by fitting a 1:1 interaction model (Langmuir binding) onto the binding curves. The affinity constant KD is calculated from resulting association and dissociation rate constants (kₐ) and […].

[16] = target: T6, human Jagged-1 (human, UniProt P78504 34-1067, limits assumed); experiment: binding ELISA on coated recombinant human Jagged-1, OD 405 nm
T6 construct: also called hJagged-1; hJAG1
Method in brief: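 Plates coated overnight at 4° C with 1 μg/mL ligand, blocked with 1% casein in PBS. VHH dilution series applied; bound VHH detected via mouse anti-myc then anti-mouse-AP conjugate.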

[17] = target: T7, recombinant mouse DLL4 (mouse, UniProt Q9JI71 27-532); experiment: binding ELISA, coated rmDLL4
T7 construct: extracellular domain; also called rmDLL4; mDLL4
Method: as §4

[18] = target: T5, mouse DLL4 overexpressed on cells; experiment: competitive FMAT, hNotch1-Fc on CHO-mDLL4
[19] = target: T5, mouse DLL4 overexpressed on cells; experiment: FMAT, labelled hNotch1-Fc on CHO-mDLL4, periplasmic extract
Source text: as §3

[20] = target: T4, recombinant human DLL4; experiment: competition AlphaScreen, biot-hDLL4/hNotch1-Fc
Method: In brief, 1 nM biotinylated human DII4 is captured on streptavidin-coated donor beads (20 μg/mL), while 0.4 nM of the receptor human Notch1 (as a Fc fusion protein) is captured on anti-human Fc VHH-coated acceptor beads (20 μg/mL). Both loaded beads are incubated together with a dilution range of the competing VHH (FIG. 4 A-E).

[21] = target: DII4-His (C-terminal His-tagged human DII4, amino acid 27-524) (human, UniProt Q9NR61 25-522); experiment: cell-based or functional assay
[22] = target: VEGF (UniProt P15692-4 27-191, limits assumed); experiment: cell-based or functional assay
Sequence of VEGF (P15692 other isoform, or with tags, fused parts or gaps limits assumed): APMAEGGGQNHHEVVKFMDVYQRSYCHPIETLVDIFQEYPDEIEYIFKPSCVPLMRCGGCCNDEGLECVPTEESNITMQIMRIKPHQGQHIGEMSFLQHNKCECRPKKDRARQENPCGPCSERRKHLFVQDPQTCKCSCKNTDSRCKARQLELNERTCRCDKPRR

T2 sequence (P15692 other isoform, or with tags, fused parts or gaps): as the sequence (P15692 other isoform, or with tags, fused parts or gaps limits assumed) above
T5 sequence (Q9JI71 27-686): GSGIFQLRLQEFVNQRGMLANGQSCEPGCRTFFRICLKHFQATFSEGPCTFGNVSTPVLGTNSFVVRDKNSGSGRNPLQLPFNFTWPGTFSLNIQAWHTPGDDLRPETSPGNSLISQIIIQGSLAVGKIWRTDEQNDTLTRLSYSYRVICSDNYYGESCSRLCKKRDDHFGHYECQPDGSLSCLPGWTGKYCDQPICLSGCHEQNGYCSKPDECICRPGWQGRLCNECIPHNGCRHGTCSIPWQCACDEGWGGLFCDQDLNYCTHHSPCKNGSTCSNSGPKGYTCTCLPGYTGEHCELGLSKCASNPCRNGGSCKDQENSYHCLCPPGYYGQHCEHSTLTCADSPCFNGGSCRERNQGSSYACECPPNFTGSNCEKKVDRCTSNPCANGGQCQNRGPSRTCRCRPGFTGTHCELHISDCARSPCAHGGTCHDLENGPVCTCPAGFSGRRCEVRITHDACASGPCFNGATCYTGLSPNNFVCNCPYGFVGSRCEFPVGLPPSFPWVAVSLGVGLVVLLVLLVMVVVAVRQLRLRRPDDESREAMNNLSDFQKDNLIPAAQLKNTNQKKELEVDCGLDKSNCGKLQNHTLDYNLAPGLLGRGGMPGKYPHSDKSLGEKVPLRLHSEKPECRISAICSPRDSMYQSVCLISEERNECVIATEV
Sequence of VEGF (used to stimulate HUVEC cells) (P15692 other isoform, or with tags, fused parts or gaps limits assumed): as the sequence (P15692 other isoform, or with tags, fused parts or gaps limits assumed) above
T7 sequence (Q9JI71 27-532): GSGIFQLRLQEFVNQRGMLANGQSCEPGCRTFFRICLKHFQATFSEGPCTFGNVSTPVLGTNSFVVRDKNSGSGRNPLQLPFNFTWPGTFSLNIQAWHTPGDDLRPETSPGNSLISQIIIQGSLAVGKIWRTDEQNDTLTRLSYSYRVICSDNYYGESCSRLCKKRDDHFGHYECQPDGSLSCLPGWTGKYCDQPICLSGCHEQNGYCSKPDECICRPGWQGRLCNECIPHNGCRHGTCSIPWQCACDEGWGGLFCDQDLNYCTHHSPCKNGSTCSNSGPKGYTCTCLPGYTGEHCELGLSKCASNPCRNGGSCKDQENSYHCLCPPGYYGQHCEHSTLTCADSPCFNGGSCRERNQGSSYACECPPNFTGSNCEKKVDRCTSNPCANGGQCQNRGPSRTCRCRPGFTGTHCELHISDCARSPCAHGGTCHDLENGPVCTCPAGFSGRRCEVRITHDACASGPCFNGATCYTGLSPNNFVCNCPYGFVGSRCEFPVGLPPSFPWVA

| IC50, DLL4/Notch1 reporter assay [8] [µM] | IC50 [9] [nM] | EC50 (read off the curve) [10] [nM] | IC50 [11] [nM] | % inh [12] [%] | binding result [13] | EC50 [14] [nM] | Kd [15] [nM] | koff [15] [s⁻¹] | kon [15] [M⁻¹ s⁻¹] | binding result [16] | EC50 [17] [nM] | IC50 [18] [nM] | % inh [19] [%] | IC50 (nM), DII4-mediated HUVEC proliferation assay, -HSA [21] [nM] | % inhibition, VEGF HUVEC Erk phosphorylation assay, -HSA [22] [%] | IC50 (nM), VEGF HUVEC Erk phosphorylation assay, -HSA [22] [nM] | Binder | other results |
| --- | --- | --- | --- | --- | --- | --- | --- | --- | --- | --- | --- | --- | --- | --- | --- | --- | --- | --- |
|  |  |  |  |  |  |  |  |  |  |  |  |  |  |  |  |  | VEGFBII023 (VHH, not shown: small tags and cut ends, Bivalent anti-VEGF VHH; also called VEGFBII23B04-40GS-10E07) EVQLVESGGGLVQTGDSLRLSCEVSGRTFSSYSMGWFRQAQGKEREFVVAISKGGYKYDSVSLEGRFTISKDNAKNTVYLQINSLKPEDTAVYYCASSRAYGSSRLRLADTYEYWGQGTQVTVSSGGGGSGGGGSGGGGSGGGGSGGGGSGGGGSGGGGSGGGGSEVQLVESGGGLVQAGGSLRLSCAASGRTFSNYAMGWFRQAPGKERVLVADISSSGINTYVADAVKGRFTISRDNAKNTVYLQMNSLKPEDTAVYYCAASAWWYSQMARDNYRYWGQGTQVTVSS | % inhibition [1]: 100%; IC50 [1]: 0.046 nM; % inhibition [2]: 100%; IC50 [2]: 0.213 nM; % inhibition [3]: 87%; IC50 [3]: 0.048 nM; Kd [4]: 0.69 nM; ka1 [4]: 300000 M⁻¹ s⁻¹; ka2 [4]: 0.024 s⁻¹; kd1 [4]: 0.018 s⁻¹; kd2 [4]: 0.00027 s⁻¹; % inhibition, VEGF HUVEC Erk phosphorylation assay [5]: 100%; IC50, VEGF HUVEC Erk phosphorylation assay [5]: 0.25 nM; EC50 [6]: 0.221 nM; IC50 [7]: 0.038 nM |
| 5.16 | 38.4 | ~20 | 161 | 75 | no binding (tested: 1000 nM) | 86.5 | 310 | 0.048 | 160000 | no binding (tested: 5e-7 M) | 8.7 | 28.8 | 83 |  |  |  | DLLBII96C03 (VHH, also called 96C3) VHH: EVQLVESGGGLVQPGGSLRLSCAASGFTFGNYDMSWVRQAPGKGPEWVSAINSGGGDTYYADSVKGRFTISRDNAKNTLYLQMNSLKPEDTAVYYCATPRGWGPTGPHEYGYWGQGTQVTVSS |  |
| 4.66 | 72 | ~20 | 172 | 74 | no binding (tested: 1000 nM) | 137 | 120 | 0.13 | 1.2e+06 | no binding (tested: 5e-7 M) | 13.1 | 106 | 71 |  |  |  | DLLBII62C11 (VHH) VHH: EVQLMESGGGLVQPGGSLRLSCVAAGFTFSNYYMSWVRQAPGKGLEWVSVISPDGSNTYYADTVKGRFTISRGNAKNTLFLQMTGLKSEDAAVYYCARGSGSWGVHGQGTQVTVSS | IC50 [20]: 24.1 nM |
|  |  |  |  |  |  |  |  |  |  |  |  |  |  | 0.53 | 101 | 0.53 | VEGFDLLBII014 (bispecific antibody, PEGylated 35gs, cys15 linker (PEG on the Cys at position 15 of the 35 Gly-Ser linker; size of the PEG not stated)) EVQLVESGGGLVQTGDSLRLSCEVSGRTFSSYSMGWFRQAQGKEREFVVAISKGGYKYDSVSLEGRFTISKDNAKNTVYLQINSLKPEDTAVYYCASSRAYGSSRLRLADTYEYWGQGTQVTVSSGGGGSGGGSEVQLVESGGGLVQPGGSLRLSCVASGIRFMSMAWYRQAPGKHRELVARISSGGTTAYVDSVKGRFTISRDNSKNTVYLQMNSLKAEDTAVYYCNTFSSRPNPWGAGTQVTVSSGGGGSGGGGSGGGGCGGGGSGGGGSGGGGSGGGGSEVQLVESGGGLVQAGGSLRLSCAASGRTFSSYAMAWYRQAPGKEREYVAAIRWSGGTAYYADSVQGRFTISRDNAKNTVYLQMNSLKPEDTAVYYCANRAPDTRLAPYEYDHWGQGTQVTVSS |  |
|  |  |  |  |  |  |  |  |  |  |  |  |  |  | 2.06 | 95 | 0.89 | VEGFDLLBII013 (bispecific antibody, PEGylated 35gs, cys15 linker (PEG on the Cys at position 15 of the 35 Gly-Ser linker; size of the PEG not stated)) EVQLVESGGGLVQTGDSLRLSCEVSGRTFSSYSMGWFRQAQGKEREFVVAISKGGYKYDSVSLEGRFTISKDNAKNTVYLQINSLKPEDTAVYYCASSRAYGSSRLRLADTYEYWGQGTQVTVSSGGGGSGGGGSGGGGCGGGGSGGGGSGGGGSGGGGSEVQLVESGGGLVQAGGSLRLSCAASGRTFSSYAMAWYRQAPGKEREYVAAIRWSGGTAYYADSVQGRFTISRDNAKNTVYLQMNSLKPEDTAVYYCANRAPDTRLAPYEYDHWGQGTQVTVSS |  |

— US20140120095A1 (Boehringer Ingelheim, published 2014)
